Measurements published in patent CN106754739A.

Biological target: 原核表达的重组人P53蛋白 (recombinant human P53 expressed in E. coli BL21 from PET28a-P53, Ni-NTA purified) (human) (UniProt P04637)
Assay: direct ELISA, purified antibody diluted 1:200 to 1:12800 on plates coated with purified P53 (10 μg/ml), goat anti-mouse IgG-HRP, OD450

Chain of UniProt P04637 (P04637 whole entry): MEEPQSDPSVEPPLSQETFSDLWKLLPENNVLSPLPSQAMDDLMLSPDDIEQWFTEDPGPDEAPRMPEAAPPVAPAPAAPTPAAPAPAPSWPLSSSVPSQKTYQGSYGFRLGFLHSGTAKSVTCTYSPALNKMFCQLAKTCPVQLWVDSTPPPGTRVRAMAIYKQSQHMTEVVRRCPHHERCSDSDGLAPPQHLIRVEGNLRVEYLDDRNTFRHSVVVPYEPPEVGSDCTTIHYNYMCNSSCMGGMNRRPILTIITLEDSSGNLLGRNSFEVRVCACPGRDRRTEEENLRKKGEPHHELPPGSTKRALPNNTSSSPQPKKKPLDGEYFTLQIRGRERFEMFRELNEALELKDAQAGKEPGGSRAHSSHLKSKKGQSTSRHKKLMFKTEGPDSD

B1: 小鼠抗人P53单克隆抗体6C4 (mouse anti-human P53 monoclonal antibody from hybridoma 6C4, CGMCC No. 6916) (antibody, part only; not given: light chain variable region, V domains shown, part only)
VH: DFCWSLSGVGVGCHLVTNSGKGLEWLAHIWWDDDKSYNPALKSRLTISKDTSTNQVFLKIASVDTADTATYYCARMTTATFAYWGQGTLVTVSPASTTPPISQ
ELISA titer (滴度) (dilution factor (1:x)): > 10000
